The values that follow come from patent publication US20040146931.

This data set deals with Gal11P-P53zf zinc finger (artificial). Kind of data set: cell_activity. Conditions: EGFP over control, in vivo site selection.

Turning to “CGGGACACGGG (double strand) [in vivo selected P53zf site 3]”, the binding is over 2 fold.
Take “CGGGACACGTG (double strand) [in vivo selected P53zf site 1]”: the binding (matches the consensus) was over 2 fold.
With “CGGGACATGTG (double strand) [in vivo selected P53zf site 2]”, the binding was over 2 fold.
